From patent CN114349860A (SHENZHEN GUEN BIOTECHNOLOGY CO LTD, dated 2022) come the findings set out here.

In general, Kd refers to a measure of binding affinity in units of concentration. Lower therefore signals tighter binding.

This test has as its target T1, FGFR4蛋白 (FGFR4 protein antigen, bought from Sino Biological / 义翘神州) (human, UniProt P22455 22-369, limits assumed).
T1 construct: also called FGFR4蛋白抗原; 成纤维细胞生长因子受体4
T1 sequence (looked up): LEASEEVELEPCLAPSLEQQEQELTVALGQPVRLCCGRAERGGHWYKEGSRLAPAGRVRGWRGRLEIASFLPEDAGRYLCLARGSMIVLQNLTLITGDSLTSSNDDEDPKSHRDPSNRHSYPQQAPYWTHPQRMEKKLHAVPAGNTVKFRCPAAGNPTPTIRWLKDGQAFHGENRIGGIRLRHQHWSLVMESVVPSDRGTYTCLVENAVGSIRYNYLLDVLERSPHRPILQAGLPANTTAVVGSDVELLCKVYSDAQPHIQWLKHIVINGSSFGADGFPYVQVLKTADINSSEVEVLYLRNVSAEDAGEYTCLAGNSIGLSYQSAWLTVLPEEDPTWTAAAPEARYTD
In words: BLI (OCTET K2), FGFR4 protein 10 ug/mL loaded on AHC sensors, 1B5 at 566.7-8.84 nM in solution.

B1: 抗成纤维细胞生长因子受体4单克隆抗体1B5 (antibody, V domains shown)
VH: EVMLVQSGPELKKPGETVKISCKASGYTFTNFGMNWVKQAPGKGLKWMGWINTYTGEPTYADDFKGRFVFSLETSASTAYLQINNLKNEDTATYLCVRSSSGYVFDYWGQGTIVTVG
VL: DIVMTQSPSSLAVSAGEKVTMSCKSSQSLLNSRTRKNYLAWYQQKPGQSPKLLIYWASTRESGVPDRFTGSGSGTDFTLTISSVQAEDLAVYYCKQSYNLLTFGEGTKLEIT
notes: Mouse hybridoma antibody (BALB/c), purified from ascites on Protein G and detected with anti-mouse IgG second antibodies; also called 1B5抗体; FGFR4单克隆抗体
The molecule B1 showed a Kd of less than 1 pM.
